In US20100310509A1 (published 2010):

Molecular target: T1, soluble human OSMR (Oncostatin M receptor) (human, UniProt Q99650 28-740)
T1 construct: extracellular domain; Bought; also called soluble OSMR
T1 sequence (looked up): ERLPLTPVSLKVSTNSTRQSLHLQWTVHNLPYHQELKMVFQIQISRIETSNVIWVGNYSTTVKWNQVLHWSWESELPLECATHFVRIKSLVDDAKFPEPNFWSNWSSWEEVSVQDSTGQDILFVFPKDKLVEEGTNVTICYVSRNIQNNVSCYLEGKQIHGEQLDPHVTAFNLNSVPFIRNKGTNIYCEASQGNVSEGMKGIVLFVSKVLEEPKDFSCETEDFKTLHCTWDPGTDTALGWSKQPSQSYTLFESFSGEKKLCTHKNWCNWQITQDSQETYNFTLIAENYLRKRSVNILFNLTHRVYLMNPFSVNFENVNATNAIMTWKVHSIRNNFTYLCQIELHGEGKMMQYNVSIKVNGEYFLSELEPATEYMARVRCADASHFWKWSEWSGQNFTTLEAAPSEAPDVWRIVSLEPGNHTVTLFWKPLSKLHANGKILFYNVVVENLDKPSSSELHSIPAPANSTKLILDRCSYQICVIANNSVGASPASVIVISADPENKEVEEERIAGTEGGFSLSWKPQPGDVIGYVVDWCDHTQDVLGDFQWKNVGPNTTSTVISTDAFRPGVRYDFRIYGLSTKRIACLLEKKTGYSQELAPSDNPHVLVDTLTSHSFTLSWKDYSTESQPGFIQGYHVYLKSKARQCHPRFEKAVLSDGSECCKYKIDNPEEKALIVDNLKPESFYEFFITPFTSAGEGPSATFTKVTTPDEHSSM
Assay: SPR (SensiQ), OSM-WT immobilised, soluble OSMR injected (150nM, 100nM, 50nM, 25nM, 10nM, 5nM)
Method: Surface Plasmon Resonance (SPR): Kinetic parameters of the interactions between receptor domains and the cytokines LIF, OSM-WT, OSM-M1 or OSM-M2 were analyzed by SPR using the SENSIQ® system (ICX Technologies, Oklahoma City, Okla.) as described by the manufacturer protocol. Briefly, a carboxyl sensor with two channels was installed in SENSIQ® and allowed to thermally equilibrate for about 15 minutes. The channels were initially cleaned with a 3 minute injection of 0.1 M HCl. An activation solution of 2 mM 1-Ethyl-3-[3-dimethylaminopropyl]carbodiimide hydrochloride (EDC) and 0.5 mM N-hydroxysulfo succinimide (NHS) was prepared in deionized water immediately before injection. Activation solution was injected over both channels for approximately 3 minutes followed by a 10 minute injection of 50 μg/mL cytokine (LIF, OSM-WT, OSM-M1 or OSM-M2) in 10 mM acetate buffer, pH 5.0, over channel 1. […] Unreacted NHS esters were capped with a 3 minute injection of 1 M ethanolamine, pH 8.0, over both channels. […] A concentration series of soluble LIFR (# 249-LR-050/CF, R&D Systems, Minneapolis, Minn.), soluble OSMR (# 4389-OR-50, R&D Systems, Minneapolis, Minn.) or soluble gp130 (# 228-GP-050/CF, R&D Systems, Minneapolis, Minn.) in running buffer (10 mM HEPES pH 7.4, 150 mM NaCl, 3.4 mM EDTA, 0.005% Tween-20) were injected over both channels at a flow rate of 25 μl/min. […]

B1: OSM-WT ('AGA' modified human Oncostatin M, referred to as wild-type OSM) (ligand)
chain: AAIGSCSKEYRVLLGQLQKQTDLMQDTSRLLDPYIRIQGLDVPKLREHCRERPGAFPSEETLRGLGRRGFLQTLNATLGCVLHRLADLEQRLPKAQDLERSGLNIEDLEKLQMARPNILGLRNNIYCMAQLLDNSDTAEPTKAGAGASQPPTPTPASDAFQRKLEGCRFLHGYHRFMHSVGRVFSKWGESPN
notes: also called hOSM with AGA modification; not shown: N-terminal FLAG tag left after thrombin removal of GST
B1: no binding (tested: 150 nM).
